{"source": "paper PMC6126843", "about": "“A dual-specific macrophage colony-stimulating factor antagonist of c-FMS and αvβ3 integrin for osteoporosis therapy” (PLoS Biology, 2018)", "molecules": {"B1": {"name": "M-CSF_(C31S), displayed on the yeast surface (ligand)", "chain": "EEVSEYCSHMIGSGHLQSLQRLIDSQMETSSQITFEFVDQEQLKDPVCYLKKAFLLVQDIMEDTMRFRDNTPNAIAIVQLQELSLRLKSCFTKDYEEHDKACVRTFYETPLQLLEKVKNVFNETKNLLDKDWNIFSKNCNNSFAECSSQ", "modifications": "Yeast-displayed Aga fusion with c-myc tag (carrier left out). Mature numbering +32 = precursor. Limits follow the M-CSF part of PDB 4WRL entity 2 (mature 1-149); the paper's own limits are not …"}}, "key": {"[1]": {"molecular_target": "M-CSFRGD variant 4.22, purified soluble protein (human) (UniProt P09603)", "assay": "SPR; ProteOn XPR36; M-CSF variants immobilised by amine coupling; c-FMS or αvβ3 integrin flowed at 0, 12.5, 25, 50, 100 and 200 nM, 50 μl/min, 25 °C, PBS + 0.005% Tween; KD from the equilibrium binding phase; apparent (S9 Fig legend)"}, "[2]": {"molecular_target": "M-CSFRGD variant 4.24, purified soluble protein (human) (UniProt P09603)", "assay": "SPR; ProteOn XPR36; M-CSF variants immobilised by amine coupling; c-FMS or αvβ3 integrin flowed at 0, 12.5, 25, 50, 100 and 200 nM, 50 μl/min, 25 °C, PBS + 0.005% Tween; KD from the equilibrium binding phase; apparent (S9 Fig legend)"}, "[3]": {"molecular_target": "M-CSFRGD variant 5.6, purified soluble protein (human) (UniProt P09603)", "assay": "SPR; ProteOn XPR36; M-CSF variants immobilised by amine coupling; c-FMS or αvβ3 integrin flowed at 0, 12.5, 25, 50, 100 and 200 nM, 50 μl/min, 25 °C, PBS + 0.005% Tween; KD from the equilibrium binding phase; apparent (S9 Fig legend)"}, "[4]": {"molecular_target": "M-CSF_(c-FMS), monospecific M-CSF that can bind only c-FMS (human) (UniProt P09603)", "assay": "SPR; ProteOn XPR36; M-CSF variants immobilised by amine coupling; c-FMS or αvβ3 integrin flowed at 0, 12.5, 25, 50, 100 and 200 nM, 50 μl/min, 25 °C, PBS + 0.005% Tween; KD from the equilibrium binding phase; apparent (S9 Fig legend)"}, "[5]": {"molecular_target": "M-CSF_(αvβ3), monospecific M-CSF that can bind αvβ3 integrin (human) (UniProt P09603)", "assay": "SPR; ProteOn XPR36; M-CSF variants immobilised by amine coupling; c-FMS or αvβ3 integrin flowed at 0, 12.5, 25, 50, 100 and 200 nM, 50 μl/min, 25 °C, PBS + 0.005% Tween; KD from the equilibrium binding phase; apparent (S9 Fig legend)"}, "[6]": {"molecular_target": "αvβ3 integrin (Homo sapiens) (UniProt P06756)", "sequence (P06756 31-992, chain 1 of 2)": "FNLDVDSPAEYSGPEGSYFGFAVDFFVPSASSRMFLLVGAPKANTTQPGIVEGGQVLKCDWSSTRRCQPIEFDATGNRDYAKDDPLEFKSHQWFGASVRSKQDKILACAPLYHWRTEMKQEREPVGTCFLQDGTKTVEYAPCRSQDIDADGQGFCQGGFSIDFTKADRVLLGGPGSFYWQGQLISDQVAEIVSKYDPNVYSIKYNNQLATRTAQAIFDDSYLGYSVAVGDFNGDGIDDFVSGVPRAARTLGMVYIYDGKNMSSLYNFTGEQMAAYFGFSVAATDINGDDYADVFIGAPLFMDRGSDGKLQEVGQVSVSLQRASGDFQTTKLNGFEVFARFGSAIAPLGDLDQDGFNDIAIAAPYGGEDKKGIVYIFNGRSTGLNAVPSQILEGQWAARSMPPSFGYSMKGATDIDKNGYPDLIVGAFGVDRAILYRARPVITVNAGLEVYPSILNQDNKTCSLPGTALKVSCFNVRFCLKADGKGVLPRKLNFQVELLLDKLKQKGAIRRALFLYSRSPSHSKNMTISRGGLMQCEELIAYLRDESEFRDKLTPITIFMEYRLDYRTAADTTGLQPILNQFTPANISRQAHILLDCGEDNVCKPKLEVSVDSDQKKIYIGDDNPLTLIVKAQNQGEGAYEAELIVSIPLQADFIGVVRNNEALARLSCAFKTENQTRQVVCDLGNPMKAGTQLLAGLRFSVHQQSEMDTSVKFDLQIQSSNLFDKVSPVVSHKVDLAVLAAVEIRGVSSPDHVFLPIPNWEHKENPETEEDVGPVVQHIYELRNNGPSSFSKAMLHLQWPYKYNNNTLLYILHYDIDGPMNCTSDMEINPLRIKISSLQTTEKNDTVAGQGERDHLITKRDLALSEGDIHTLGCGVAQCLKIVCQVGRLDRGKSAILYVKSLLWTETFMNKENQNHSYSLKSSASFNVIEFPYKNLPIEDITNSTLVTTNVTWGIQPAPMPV", "sequence (P05106 27-718, chain 2 of 2, further chain)": "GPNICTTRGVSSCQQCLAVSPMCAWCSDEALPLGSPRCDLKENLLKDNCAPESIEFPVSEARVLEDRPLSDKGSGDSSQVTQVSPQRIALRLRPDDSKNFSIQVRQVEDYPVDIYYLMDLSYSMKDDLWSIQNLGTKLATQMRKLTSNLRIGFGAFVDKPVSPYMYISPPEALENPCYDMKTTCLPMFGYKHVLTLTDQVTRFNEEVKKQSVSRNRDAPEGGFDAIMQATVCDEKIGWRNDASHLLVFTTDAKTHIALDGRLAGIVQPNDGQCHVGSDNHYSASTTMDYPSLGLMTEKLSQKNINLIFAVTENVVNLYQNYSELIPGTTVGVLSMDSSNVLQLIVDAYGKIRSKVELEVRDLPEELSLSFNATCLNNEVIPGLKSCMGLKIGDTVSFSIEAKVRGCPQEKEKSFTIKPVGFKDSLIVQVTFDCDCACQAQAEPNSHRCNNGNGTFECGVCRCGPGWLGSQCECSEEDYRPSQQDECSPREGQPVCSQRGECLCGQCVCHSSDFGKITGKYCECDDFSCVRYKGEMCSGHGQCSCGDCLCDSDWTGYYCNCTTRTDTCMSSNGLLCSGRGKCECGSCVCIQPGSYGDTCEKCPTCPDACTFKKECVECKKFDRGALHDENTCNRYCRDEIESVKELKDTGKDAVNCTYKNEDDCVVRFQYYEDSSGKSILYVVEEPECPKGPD", "settings": "cited from earlier work"}, "[7]": {"molecular_target": "c-FMS (Homo sapiens) (UniProt P07333)", "sequence (P07333 20-517)": "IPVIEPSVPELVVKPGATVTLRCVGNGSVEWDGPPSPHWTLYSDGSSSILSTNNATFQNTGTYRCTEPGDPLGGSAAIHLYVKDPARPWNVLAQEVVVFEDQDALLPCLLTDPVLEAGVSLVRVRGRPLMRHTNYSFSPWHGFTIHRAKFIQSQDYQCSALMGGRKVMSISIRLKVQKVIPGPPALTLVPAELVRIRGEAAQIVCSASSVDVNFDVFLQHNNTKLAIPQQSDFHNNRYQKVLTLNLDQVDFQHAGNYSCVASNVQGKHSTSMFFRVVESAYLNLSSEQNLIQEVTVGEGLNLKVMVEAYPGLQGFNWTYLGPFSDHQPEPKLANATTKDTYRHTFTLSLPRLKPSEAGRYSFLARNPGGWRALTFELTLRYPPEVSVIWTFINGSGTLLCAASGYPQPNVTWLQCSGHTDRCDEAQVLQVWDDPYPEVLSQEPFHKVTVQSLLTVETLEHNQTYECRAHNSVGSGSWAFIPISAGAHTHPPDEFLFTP", "settings": "cited from earlier work"}, "[8]": {"molecular_target": "T1, soluble Fc-conjugated human c-FMS (human, UniProt P07333 20-517)", "T1 construct": "c-FMS (M-CSF receptor, CSF-1R), human, soluble form; Detected with goat anti-human Fc FITC; also called c-FMS-Fc; soluble c-FMS; source: bought: R&D systems", "T1 sequence (P07333 20-517)": "as above", "assay": "flow cytometry on cells; yeast surface display: yeast displaying M-CSF incubated with soluble c-FMS-Fc (0.5–2000 nM for the titration, 100 nM for the libraries, 50 nM for single clones) in PBS + 1% BSA, 1 h at room temperature; detected with goat anti-human Fc FITC; apparent", "settings": "one partner purified"}}}
{"molecule": "human c-FMS soluble protein (from UniProt P07333 20-517) (receptor)", "values": [{"measurement": "Kd", "setting": "[1]", "result": 152, "unit": "nM"}, {"measurement": "Kd", "setting": "[2]", "result": 219, "unit": "nM"}, {"measurement": "Kd", "setting": "[3]", "result": 96, "unit": "nM"}, {"measurement": "Kd", "setting": "[4]", "result": 195, "unit": "nM"}]}
{"molecule": "soluble human αvβ3 integrin (from UniProt P06756 31-1048; P05106 27-718) (complex)", "values": [{"measurement": "Kd", "setting": "[1]", "result": 199, "unit": "nM"}, {"measurement": "Kd", "setting": "[2]", "result": 108, "unit": "nM"}, {"measurement": "Kd", "setting": "[3]", "result": 245, "unit": "nM"}, {"measurement": "Kd", "setting": "[5]", "result": 231, "unit": "nM"}]}
{"molecule": "vitronectin (from UniProt P04004)", "values": [{"measurement": "Kd", "setting": "[6]", "result": 40.7, "unit": "nM"}]}
{"molecule": "M-CSF (from UniProt P09603)", "values": [{"measurement": "Kd", "setting": "[7]", "result": 13.6, "unit": "nM"}]}
{"molecule": "B1", "values": [{"measurement": "Kd", "setting": "[8]", "result": 20, "unit": "nM"}]}
